The target of this assay is pre-translocation (PRE) complex of the E. coli 70S ribosome (E. coli) (UniProt P0A7K2). In words: stopped-flow fluorescence and FRET kinetics, global fit by numerical integration; PRE complexes (0.05 uM, six fluorescence reporters) mixed with saturating EF-G (4-5 uM), 1 mM GTP, 200 uM fusidic acid; buffer A (50 mM Tris-HCl pH 7.5, 70 mM NH4Cl, 30 mM KCl, 7 mM MgCl2), 37 °C; 5-step model, k-1/k1 constrained to 65/55 uM; KinTek Explorer.

Regarding “elongation factor G (from UniProt P0A6M8 1-704) (enzyme)”, the on-rate (kon) turned out to be 4.2e+07 M⁻¹ s⁻¹.

Usually kon stands for the rate constant with which the complex forms.

The values above are taken from PMC5585275.
